Legend:
CD8+CD45.1+ OT-I cells = assay: In vivo proliferative T cell responses, adoptive transfer of CFSE labelled OT-I cells; parameters: species or system C57BL/6 mice; details: 3 μg OVA alone or with 3-fold molar excess lipopeptide, s.c., inguinal LNs day 3
Excerpt: In vivo proliferative T cell responses. […] Inguinal LNs were obtained 3 days after vaccination and CFSE intensities of CD8^+CD45.1^+ cells measured by flow cytometry.
To characterise early events associated with vaccine-mediated induction of CD8^+ T cell responses, the present inventors utilised the adoptive transfer of CD8^+ T cells from OTI transgenic mice that express the Vα2 TCR specific for OVA257. […] Analysis of OTI T cells in the draining lymph nodes of vaccinated animals was then carried out 3 days later and the loss of CFSE in these cells was used as an indicator of T cell proliferation.

[1] = Optical density of antigen and lipopeptide formulations (450 nm); format: physicochemical; details: constant OVA (25 μg) plus increasing lipopeptide, up to 3-fold molar excess, PBS
Procedure: Optical density of antigen and lipopeptide formulations. A constant amount (0.55 nmol; 25 μg) of OVA was mixed with each lipopeptide at different protein:lipopeptide molar ratios in 50 μl of PBS in a 96-well plate at room temperature. The optical density of these solutions was then measured on a plate reader at a wavelength of 450 nm.

[2] = Dynamic light scattering analysis of vaccine formulations; format: physicochemical
Procedure: FIG. 3. Particle size distribution of antigen and lipopeptide formulations. OVA (25 μg) was mixed with each lipopeptide at a 1:3 molar ratio of protein to lipopeptide in […] of PBS in a 96-well plate at room temperature. The size distribution of particulates in samples were then analysed by dynamic light scattering with each profile depicting the hydrodynamic radius (nm) of particles detected versus the percentage intensity of scattered light (% intensity).
To determine the size of complexes formed between OVA and each lipopeptide, we analysed these formulations by dynamic light scattering.

## OVA: protein antigen OVA used as model antigen, alone
CD8+CD45.1+ OT-I cells
  division of T cells (percentage of OT-I cells which proliferated): ~37%

## CCCCCCCCCCCCCCCC(=O)OCC(CSCC(N)C(=O)N[C@@H](CO)C(=O)N[C@@H](CO)C(=O)NCCCC[C@H](NC(=O)[C@H](CCCCNC(=O)[C@H](CCCCNC(=O)[C@@H](N)CCCNC(=N)N)NC(=O)[C@@H](N)CCCNC(=N)N)NC(=O)[C@H](CCCCNC(=O)[C@@H](N)CCCNC(=N)N)NC(=O)[C@@H](N)CCCNC(=N)N)C(N)=O)OC(=O)CCCCCCCCCCCCCCC (some centres unmarked) [R4Pam2Cys]
[1]
  optical density (OD) of solutions, solubility: increase in OD

B1: OVA: protein antigen OVA used as model antigen, alone (protein, UniProt P01012 2-386, looked up)
Ovalbumin: GSIGAASMEFCFDVFKELKVHHANENIFYCPIAIMSALAMVYLGAKDSTRTQINKVVRFDKLPGFGDSIEAQCGTSVNVHSSLRDILNQITKPNDVYSFSLASRLYAEERYPILPEYLQCVKELYRGGLEPINFQTAADQARELINSWVESQTNGIIRNVLQPSSVDSQTAMVLVNAIVFKGLWEKAFKDEDTQAMPFRVTEQESKPVQMMYQIGLFRVASMASEKMKILELPFASGTMSMLVLLPDEVSGLEQLESIINFEKLTEWTSSNVMEERKIKVYLPRMKMEEKYNLTSVLMAMGITDVFSSSANLSGISSAESLKISQAVHAAHAEINEAGREVVGSAEAGVDAASVSEEFRADHPFLFCIKHIATNAVLFFGRCVSP
[2]; DLS at 25° C in PBS, mixtures: OVA 25 μg, 1:3 molar ratio protein to lipopeptide
  Hydrodynamic diameter (nm): 199.5 ± 42.6 nm
[2]; DLS at 25° C, <20% is considered monodispersed
  % Pd (polydispersity): 27.1 ± 11.5%
[2]; OVA or lipopeptide alone
  particle size of sample alone: 157-242 nm

From patent publication US20170274068A1, “IMMUNOLOGICAL REAGENT” (priority 2014, published 2017)
